The assay has as its target T1, SARS-COV-2病毒N蛋白 (SARS-COV-2, UniProt P0DTC9 1-419).
T1 construct: also called 新型冠状病毒N蛋白; SARS-COV-2N蛋白
The experiment in a line: ELISA, N protein coated 100 ng/well, supernatant of transfected Expi293F cells.

B1: 31A8抗体重链31A8mG1 (heavy chain transfected alone) (other)
VH: EVQLQQSGPELVKPGASVKISCKTSGYTFTKYTMHWVKQSHGKSLEWIGGINPNNGGNSYNQKFKGKATLTVDKSSSTAYMELRSLTSEDSAVYYCATPDYWGQGTTLTVSS
In the case of B1, the binding result was “no binding”.

The record behind these values is patent CN116425870A (UNIV SHAANXI NORMAL, dated 2023).
